# Laboratory results published in article PMC3985918 (Biochemistry, 2014).
# T1: TylM1 (Streptomyces fradiae, UniProt P95748)
# T1 sequence (P95748 2-255): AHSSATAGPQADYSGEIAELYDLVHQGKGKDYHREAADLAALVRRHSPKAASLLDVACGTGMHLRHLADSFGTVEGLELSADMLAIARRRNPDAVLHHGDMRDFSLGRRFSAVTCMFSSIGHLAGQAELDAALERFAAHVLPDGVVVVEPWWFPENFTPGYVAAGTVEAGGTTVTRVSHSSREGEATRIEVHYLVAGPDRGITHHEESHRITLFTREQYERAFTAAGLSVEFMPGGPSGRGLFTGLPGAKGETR
# Columns and labels:
# TylM1 [1] = molecular target: T1, TylM1; test: X-ray crystal structure, […] Å; assay type: binding; conditions: complex with SAH; active site
# TylM1 [2] = molecular target: T1, TylM1; test: X-ray crystal structure, […] Å; assay type: binding; conditions: complex with SAH; active site; remark: listed apart in the source
# purified protein [3] = substrate: Cc1cn([C@H]2C[C@H](O)[C@@H](COP(=O)(O)OP(=O)(O)O[C@H]3O[C@H](C)[C@H](O)[C@H](N)[C@H]3O)O2)c(=O)[nH]c1=O; test: purified protein; conditions: methyl donor SAM
# purified protein [4] = substrate: Cc1cn([C@H]2C[C@H](O)[C@@H](COP(=O)(O)OP(=O)(O)O[C@H]3O[C@H](C)[C@@H](O)[C@H](N)[C@H]3O)O2)c(=O)[nH]c1=O; test: purified protein; conditions: methyl donor SAM
molecule,measurement,setting,value
"CN[C@H]1[C@@H](O)[C@@H](C)O[C@H](OP(=O)(O)OP(=O)(O)OC[C@H]2O[C@@H](n3cc(C)c(=O)[nH]c3=O)C[C@@H]2O)[C@@H]1O [dTDP-3-N-methylamino-3,6-dideoxygalactose]","X-ray crystal structure, 2.2 Å",TylM1 [1],"enzyme in complex with SAH and dTDP-3-N-methylamino-3,6-dideoxygalactose"
Cc1cn([C@H]2C[C@H](O)[C@@H](COP(=O)(O)OP(=O)(O)O[C@H]3O[C@H](C)[C@@H](O)[C@H](N(C)C)[C@H]3O)O2)c(=O)[nH]c1=O [dTDP-mycaminose],"X-ray crystal structure, 1.6 Å",TylM1 [2],The first structure determined for this investigation was that of TylM1 in complex with SAH
TylM1 (Streptomyces fradiae) (protein) AHSSATAGPQADYSGEIAELYDLVHQGKGKDYHREAADLAALVRRHSPKAASLLDVACGTGMHLRHLADSFGTVEGLELSADMLAIARRRNPDAVLHHGDMRDFSLGRRFSAVTCMFSSIGHLAGQAELDAALERFAAHVLPDGVVVVEPWWFPENFTPGYVAAGTVEAGGTTVTRVSHSSREGEATRIEVHYLVAGPDRGITHHEESHRITLFTREQYERAFTAAGLSVEFMPGGPSGRGLFTGLPGAKGETR,Km,purified protein [3],1540 ± 80 µM
same,kcat,purified protein [3],0.61 ± 0.07 s⁻¹
same,Km,purified protein [4],79 ± 15 µM
same,kcat,purified protein [4],0.75 ± 0.09 s⁻¹
